B1: Proliferation-associated protein 2G4 (Homo sapiens), Q9UQ80 (parent)
chain: MSGEDEQQEQTIAEDLVVTKYKMGGDIANRVLRSLVEASSSGVSVLSLCEKGDAMIMEETGKIFKKEKEMKKGIAFPTSISVNNCVCHFSPLKSDQDYILKEGDLVKIDLGVHVDGFIANVAHTFVVDVAQGTQVTGRKADVIKAAHLCAEAALRLVKPGNQNTQVTEAWNKVAHSFNCTPIEGMLSHQLKQHVIDGEKTIIQNPTDQQKKDHEKAEFEVHEVYAVDVLVSSGEGKAKDAGQRTTIYKRDPSKQYGLKMKTSRAFFSEVERRFDAMPFTLRAFEDEKKARMGVVECAKHELLQPFNVLYEKEGEFVAQFKFTVLLMPNGPMRITSGPFEPDLYKSEMEVQDAELKALLQSSASRKTQKKKKKKASKTAENATSGETLEENEAGD

Variants of: B1
Conditions: with erbb3_rat Erbb3, Q62799
Sequence of erbb3_rat Erbb3, Q62799 (Q62799 whole entry): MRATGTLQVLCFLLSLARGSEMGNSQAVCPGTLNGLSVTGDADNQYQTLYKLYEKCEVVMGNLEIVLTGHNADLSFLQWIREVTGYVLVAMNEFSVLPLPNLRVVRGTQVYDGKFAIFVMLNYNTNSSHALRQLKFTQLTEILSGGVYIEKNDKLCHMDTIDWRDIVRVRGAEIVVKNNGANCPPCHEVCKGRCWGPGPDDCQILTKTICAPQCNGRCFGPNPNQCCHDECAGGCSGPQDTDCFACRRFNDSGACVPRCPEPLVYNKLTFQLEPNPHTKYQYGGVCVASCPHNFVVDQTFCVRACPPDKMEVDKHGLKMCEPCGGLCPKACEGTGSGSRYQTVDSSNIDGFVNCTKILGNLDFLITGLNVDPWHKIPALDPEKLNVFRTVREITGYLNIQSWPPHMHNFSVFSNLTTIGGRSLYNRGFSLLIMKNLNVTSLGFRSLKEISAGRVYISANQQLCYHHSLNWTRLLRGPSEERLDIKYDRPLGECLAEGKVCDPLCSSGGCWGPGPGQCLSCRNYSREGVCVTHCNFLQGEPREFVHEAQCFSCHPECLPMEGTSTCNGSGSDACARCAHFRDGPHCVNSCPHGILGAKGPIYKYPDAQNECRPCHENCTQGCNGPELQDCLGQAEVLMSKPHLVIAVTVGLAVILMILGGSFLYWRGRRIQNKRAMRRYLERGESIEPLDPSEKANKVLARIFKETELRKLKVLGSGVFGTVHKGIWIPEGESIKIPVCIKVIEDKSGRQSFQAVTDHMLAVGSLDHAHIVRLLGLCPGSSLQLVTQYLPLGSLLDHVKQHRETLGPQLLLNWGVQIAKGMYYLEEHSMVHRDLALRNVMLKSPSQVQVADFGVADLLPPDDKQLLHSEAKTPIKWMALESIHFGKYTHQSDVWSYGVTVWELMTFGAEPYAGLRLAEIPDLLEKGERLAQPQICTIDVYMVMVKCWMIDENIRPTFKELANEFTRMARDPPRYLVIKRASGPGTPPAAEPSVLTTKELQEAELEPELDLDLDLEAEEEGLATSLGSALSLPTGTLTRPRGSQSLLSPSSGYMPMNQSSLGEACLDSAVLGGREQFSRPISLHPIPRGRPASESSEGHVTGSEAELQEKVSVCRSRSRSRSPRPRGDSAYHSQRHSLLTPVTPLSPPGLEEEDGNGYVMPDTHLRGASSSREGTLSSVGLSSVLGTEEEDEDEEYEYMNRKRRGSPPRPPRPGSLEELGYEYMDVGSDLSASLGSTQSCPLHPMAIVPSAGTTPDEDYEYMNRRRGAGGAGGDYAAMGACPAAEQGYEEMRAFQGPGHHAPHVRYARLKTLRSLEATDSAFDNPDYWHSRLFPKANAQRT
S360A was tested, and the “effect of a mutation on the interaction” value was “disrupting interaction strength”.

Source: IntAct's records for PubMed 16832058
